Measured values taken from publication PMC2744266, “The Ataxia (ax ^J) Mutation Causes Abnormal GABAA Receptor Turnover in Mice” (PLoS Genetics, 2009).

Target: T1, GABAAR α1 subunit, full length, expressed in HEK293 cells (UniProt P62812 28-455)
T1 sequence (looked up): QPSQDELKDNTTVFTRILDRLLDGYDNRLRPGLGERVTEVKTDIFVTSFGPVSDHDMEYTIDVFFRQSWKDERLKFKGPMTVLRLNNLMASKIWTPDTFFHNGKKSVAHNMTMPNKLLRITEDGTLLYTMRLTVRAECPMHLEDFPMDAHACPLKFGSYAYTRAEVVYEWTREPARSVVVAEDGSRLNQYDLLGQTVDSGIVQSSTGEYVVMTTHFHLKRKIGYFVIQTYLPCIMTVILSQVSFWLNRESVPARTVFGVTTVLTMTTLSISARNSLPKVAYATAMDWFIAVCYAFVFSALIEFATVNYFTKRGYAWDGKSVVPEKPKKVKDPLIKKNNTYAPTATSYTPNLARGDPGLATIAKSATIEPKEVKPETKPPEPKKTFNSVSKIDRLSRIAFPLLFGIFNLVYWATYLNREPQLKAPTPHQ
Assay: cell-based or functional assay

B1: Endogenous Usp14 protein derived from mouse brain lysates (enzyme, mouse (endogenous in brain), UniProt Q9JMA1 1-493, looked up)
chain: MPLYSVTVKWGKEKFEGVELNTDEPPMVFKAQLFALTGVQPARQKVMVKGGTLKDDDWGNIKMKNGMTVLMMGSADALPEEPSAKTVFVEDMTEEQLATAMELPCGLTNLGNTCYMNATVQCIRSVPELKDALKRYAGALRASGEMASAQYITAALRDLFDSMDKTSSSIPPIILLQFLHMAFPQFAEKGEQGQYLQQDANECWIQMMRVLQQKLEAIEDDSGRETDSSSAPAVTPSKKKSLIDQYFGVEFETTMKCTESEEEEVTKGKENQLQLSCFINQEVKYLFTGLKLRLQEEITKQSPTLQRNALYIKSSKISRLPAYLTIQMVRFFYKEKESVNAKVLKDVKFPLMLDVYELCTPELQEKMVSFRSKFKDLEDKKVNQQPNANDKNSPPKEIKYEPFSFADDIGSNNCGYYDLQAVLTHQGRSSSSGHYVSWVRRKQDEWIKFDDDKVSIVTPEDILRLSGGGDWHIAYVLLYGPRRVEIMEEESEQ
GABAAR α1-GFP surface membrane levels (surface biotinylation, HEK293 cells expressing GABAAR α1-GFP and GABAAR β3) with the competing peptide mRFP-GABAAR α1(334–346) against mRFP: 2.5 fold
